Experimental data taken from US20220401482A1, “GENERATION OF CD38 KNOCK-OUT PRIMARY AND EXPANDED HUMAN NK CELLS” (RESEARCH INSTITUTE AT NATIONWIDE CHILDREN'S HOSPITAL, priority 2019, published 2022).

Target: CD38 (cluster of differentiation 38) on human NK cells and multiple myeloma cells (human) (UniProt P28907)
Assay: cell-based or functional assay

For daratumumab (antibody), the sensitivity to daratumumab-mediated fratricide, unmodified control (CD38-expressing) NK cells was 77%.
